# Reference: patent publication US20220033520A1
# Assays:
# [1] = biological target: human FcRn (FCGRT and beta-2 microglobulin) expressed on MDCK II cells (human) (UniProt P55899); assay: cell-based or functional assay
# [2] = biological target: human FcRn complex (FCGRT and beta-2 microglobulin), recombinant, purified (human) (UniProt P55899); assay: SPR, protein L capture, pH 6, kinetic
# [3] = biological target: human FcRn complex (FCGRT and beta-2 microglobulin), recombinant, purified (human) (UniProt P55899); assay: SPR, protein L capture, pH 7.4, steady state
# human FcRn complex (FCGRT and beta-2 microglobulin), recombinant, purified (human), sequence (P55899 24-297 limits assumed, chain 1 of 2): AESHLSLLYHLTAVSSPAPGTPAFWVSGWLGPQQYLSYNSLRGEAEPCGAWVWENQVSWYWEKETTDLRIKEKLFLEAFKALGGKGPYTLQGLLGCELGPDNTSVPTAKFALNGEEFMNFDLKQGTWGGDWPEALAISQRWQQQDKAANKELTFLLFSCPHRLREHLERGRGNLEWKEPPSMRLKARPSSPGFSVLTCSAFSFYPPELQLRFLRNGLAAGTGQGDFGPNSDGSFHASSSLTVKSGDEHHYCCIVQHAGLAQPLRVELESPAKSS
# human FcRn complex (FCGRT and beta-2 microglobulin), recombinant, purified (human), sequence (P61769 21-119 limits assumed, chain 2 of 2, further chain): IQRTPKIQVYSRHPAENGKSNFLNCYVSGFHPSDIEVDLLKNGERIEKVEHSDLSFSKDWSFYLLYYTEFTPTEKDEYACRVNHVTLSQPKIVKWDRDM
# antibody comprising wild-type hIgG4 (Table 2), sequence (Fc): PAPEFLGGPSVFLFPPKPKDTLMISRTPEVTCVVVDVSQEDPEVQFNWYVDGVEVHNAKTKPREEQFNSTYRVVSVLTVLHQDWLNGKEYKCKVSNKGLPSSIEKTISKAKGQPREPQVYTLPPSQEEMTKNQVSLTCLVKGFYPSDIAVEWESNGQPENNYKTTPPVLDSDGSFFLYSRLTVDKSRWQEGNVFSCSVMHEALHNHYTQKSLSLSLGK
# human FcRn (FCGRT and beta-2 microglobulin) expressed on MDCK II cells (human), sequence (P55899 24-365, chain 1 of 2): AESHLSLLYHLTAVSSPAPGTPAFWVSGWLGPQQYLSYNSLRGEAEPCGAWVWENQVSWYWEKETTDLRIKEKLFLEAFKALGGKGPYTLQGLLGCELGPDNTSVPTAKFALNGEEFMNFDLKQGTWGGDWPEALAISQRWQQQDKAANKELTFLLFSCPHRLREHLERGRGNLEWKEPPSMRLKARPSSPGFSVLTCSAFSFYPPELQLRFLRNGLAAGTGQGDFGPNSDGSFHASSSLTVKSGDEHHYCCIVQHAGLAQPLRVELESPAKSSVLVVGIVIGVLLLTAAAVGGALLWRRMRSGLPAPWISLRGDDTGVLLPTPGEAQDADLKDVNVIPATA
# human FcRn (FCGRT and beta-2 microglobulin) expressed on MDCK II cells (human), sequence (P61769 21-119, chain 2 of 2, further chain): as the sequence (P61769 21-119 limits assumed, chain 2 of 2, further chain) above
Substance,Transcytosis Normalized to WT (normalized to WT) [1],Kd [2],koff [2],kon [2],Kd [3]
"anti-BACE1 hIgG1 antibody, Fc modification D7 (H433K/N434Y)",9.4,92.2 nM,0.00192 s⁻¹,20800 M⁻¹ s⁻¹,–
"anti-BACE1 hIgG1 antibody, Fc modification D92 (M252W/N434W)",92,12.4 nM,0.0074 s⁻¹,595000 M⁻¹ s⁻¹,760 nM
"anti-BACE1 hIgG1 antibody, Fc modification Q4 (M252Y/Q311I/M428L/N434Y)",159,57.3 nM,0.0107 s⁻¹,186000 M⁻¹ s⁻¹,1270 nM
"anti-BACE1 hIgG1 antibody, Fc modification S1 (M252Y)",1.7,117 nM,0.00172 s⁻¹,14700 M⁻¹ s⁻¹,–
"anti-BACE1 hIgG1 antibody, Fc modification S2 (N286E)",1.7,303 nM,0.00316 s⁻¹,10400 M⁻¹ s⁻¹,–
"anti-BACE1 hIgG1 antibody, Fc modification S4 (H310A)",1.1,–,–,–,–
"anti-BACE1 hIgG1 antibody, Fc modification S6 (Q311I)",1.7,171 nM,0.00157 s⁻¹,9190 M⁻¹ s⁻¹,–
"anti-BACE1 hIgG1 antibody, Fc modification S7 (M428L)",2,178 nM,0.00202 s⁻¹,11300 M⁻¹ s⁻¹,–
"anti-BACE1 hIgG1 antibody, Fc modification S8 (H433K)",2.9,363 nM,0.0048 s⁻¹,13200 M⁻¹ s⁻¹,–
"anti-BACE1 hIgG1 antibody, Fc modification S9 (N434F)",6.3,100 nM,0.0419 s⁻¹,418000 M⁻¹ s⁻¹,–
"anti-BACE1 hIgG1 antibody, Fc modification S10 (N434W)",26,54.9 nM,0.051 s⁻¹,929000 M⁻¹ s⁻¹,5530 nM
"anti-BACE1 hIgG1 antibody, Fc modification S11 (N434Y)",7.8,73.6 nM,0.0141 s⁻¹,191000 M⁻¹ s⁻¹,–
"anti-BACE1 hIgG1 antibody, Fc modification S12 (Y436I)",1.8,201 nM,0.00193 s⁻¹,9590 M⁻¹ s⁻¹,–
"anti-BACE1 hIgG1 antibody, Fc modification T1 (M252Y/T307Q/N434Y)",125,12 nM,0.0101 s⁻¹,874000 M⁻¹ s⁻¹,461 nM
"anti-BACE1 hIgG1 antibody, Fc modification T2 (M252Y/Q311A/N434Y)",111,20 nM,0.0178 s⁻¹,908000 M⁻¹ s⁻¹,614 nM
"anti-BACE1 hIgG1 antibody, Fc modification T4 (M252Y/M428L/N434Y)",100,30 nM,0.0201 s⁻¹,660000 M⁻¹ s⁻¹,2200 nM
"anti-BACE1 hIgG1 antibody, Fc modification T5 (M252Y/H433K/N434Y)",112,34 nM,0.0357 s⁻¹,1.05e+06 M⁻¹ s⁻¹,730 nM
"anti-BACE1 hIgG1 antibody, Fc modification T6 (M252Y/N434Y/Y436I)",133,–,–,–,459 nM

Substance,Transcytosis Normalized to WT (normalized to WT) [1],Kd [2],koff [2],kon [2],Kd [3]
"anti-BACE1 hIgG1 antibody, Fc modification T7 (T307Q/N286E/N434Y)",91,19 nM,0.0177 s⁻¹,931000 M⁻¹ s⁻¹,1120 nM
"anti-BACE1 hIgG1 antibody, Fc modification T8 (T307Q/Q311A/N434Y)",64,37 nM,0.0319 s⁻¹,854000 M⁻¹ s⁻¹,1680 nM
"anti-BACE1 hIgG1 antibody, Fc modification T9 (T307Q/Q311I/N434Y)",140,520 nM,0.00767 s⁻¹,14800 M⁻¹ s⁻¹,1930 nM
"anti-BACE1 hIgG1 antibody, Fc modification T11 (T307Q/H433K/N434Y)",65,37 nM,0.0166 s⁻¹,445000 M⁻¹ s⁻¹,4800 nM
"anti-BACE1 hIgG1 antibody, Fc modification T12 (T307Q/N434Y/Y436I)",112,–,–,–,–
"anti-BACE1 hIgG1 antibody, Fc modification T13 (N286E/Q311A/N434Y)",108,38 nM,0.0327 s⁻¹,852000 M⁻¹ s⁻¹,2450 nM
"anti-BACE1 hIgG1 antibody, Fc modification T14 (N286E/Q311I/N434Y)",73,36 nM,0.0278 s⁻¹,772000 M⁻¹ s⁻¹,3110 nM
"anti-BACE1 hIgG1 antibody, Fc modification T16 (N286E/H433K/N434Y)",55,66.7 nM,0.0271 s⁻¹,406000 M⁻¹ s⁻¹,4980 nM
"anti-BACE1 hIgG1 antibody, Fc modification T17 (N286E/N434Y/Y436I)",65,53 nM,0.0334 s⁻¹,631000 M⁻¹ s⁻¹,6080 nM
"anti-BACE1 hIgG1 antibody, Fc modification T18 (Q311A/M428L/N434Y)",140,–,–,–,–
"anti-BACE1 hIgG1 antibody, Fc modification T19 (Q311A/H433K/N434Y)",55,53.5 nM,0.0096 s⁻¹,179000 M⁻¹ s⁻¹,4480 nM
"anti-BACE1 hIgG1 antibody, Fc modification T22 (Q311I/H433K/N434Y)",131,64 nM,–,–,9030 nM
"anti-BACE1 hIgG1 antibody, Fc modification T26 (H433K/N434Y/Y436I)",71,–,–,–,–
"anti-BACE1 hIgG4 antibody, Fc modification T6-IgG4 (M252Y/N434Y/Y436I)",66,–,–,–,412 nM
antibody comprising modified Fc M428L/N434A (LA) (Table 2),5.1,99.2 nM,0.00371 s⁻¹,37400 M⁻¹ s⁻¹,–
antibody comprising wild-type hIgG1 (Table 2),1,732 nM,0.0164 s⁻¹,22300 M⁻¹ s⁻¹,–
antibody comprising wild-type hIgG4 (Table 2),1,563 nM,0.0119 s⁻¹,21100 M⁻¹ s⁻¹,–
